Test results: patent US11339381B2, “Nucleotide sequence encoding 9-lipoxygenase and recombinant constructs comprising the same” (Council of Scientific & Industrial Research, priority 2016, dated 2022)

Tests used:
[1] = test system: ethylene treated mango fruits; experiment: In vivo transient over expression of 9-lipoxygenase by Agrobacterium mediated infiltration; set-up: species or system Alphonso mango (Mangifera indica); conditions: for δ-decalactone content compared to control tissue / δ-valerolactone content compared to control tissue: transient over expression, 2 days post infiltration, GC-FID
Method: The full length polynucleotide sequence (SEQ ID NO: 1) encoding 9-lipoxygenase (SEQ ID NO: 2) was cloned into the pBI121 plant expression vector between CaMV 35S promoter and GusA gene. Terminal primers were designed (SEQ ID NO: 10 and SEQ ID NO: 11) to clone genes at BamHI restriction site. The resulted correct oriented construct pBI121+Mi9LOX and pBI121 empty vector were transformed in the Agrobacterium GV3101 strain for transient expression studies. Separate Agrobacterium cultures (5 mL) were initiated from individual colonies in YEB medium having appropriate antibiotics and incubated overnight at 28° C. This culture was transferred to 50 mL induction medium (0.5% beef extract, 0.1% yeast extract, 0.5% peptone, 0.5% sucrose, 2 mM MgSO4, […], 10 mM MES, pH 5.6) having appropriate antibiotics, and again grown overnight. On the succeeding day, cultures were recovered by centrifugation, resuspended in infiltration medium (10 mM MgCl2, 10 mM MES, […], pH 5.6) till optical density reaches 1.0. This suspension was again incubated at 28° C. with gentle agitation for 2 hrs. Over expression studies for 9LOX was carried out by Agrobacterium mediated infiltration in ethylene treated mango fruits at 3DAH stage by using hypodermic syringe (FIG. 4a). Equal volumes of pBI121+Mi9LOX and pBI121 construct containing cultures were used for infiltration in two different halves of same mango fruit separated by fruit stone. Set of five distinct mango fruits were used for the overexpression study as data set. Infiltrated fruits were kept at 25° C. for 2 days in 12 hr dark and 12 hr light conditions, after 2 days; part from each fruit halves was checked by the Gus staining (Kapila et al. 1997; Spolaore et al. 2001) to confirm expression of Mi9LOX under 35S promoter along with GusA, remaining part of fruit pulp stored in −80° C. until used for the lactone analysis by gas chromatography.
Thus, ethylene treated mangoes were ideal for Agrobacterium infiltration studies as Agrobacterium infiltrated fruits cannot be incubated for more than 2 days due to the risk of bacterial and fungal infection owing to fruit injury during infiltration. Two days post infiltration, a part of fruit was checked by Gus staining (FIG. 4b) to confirm expression of GusA along with the Mi9LOX gene. The remaining tissue was used for the lactone content analysis. The lactones were analysed from control and test region of fruits from Mi9LOX sets. Total 8 lactones viz. γ-butyrolactone, δ-valerolactone, γ-hexalactone, δ-hexalactone, γ-octalactone, δ-octalactone, γ-decalactone and δ-decalactone were detected from all the tissues in GC-MS analysis.

[2] = test system: recombinant 9-lipoxygenase (Mi9LOX); experiment: Recombinant Mi9LOX enzyme kinetics with LA and ALA as substrates (conjugated diene formation at 234 nm); format: biochemical, Mangifera indica; conditions: substrate of Mi9LOX
Method: The recombinant 9-lipoxygenase (Mi9LOX) activity assays was initially carried out in 250 μl final volume of 100 mM phosphate citrate buffer pH 7.0 at 30° C. containing 200 μM substrate (LA/ALA) and 0.005% Tween20. The activity was measured by formation of the conjugated diene at absorbance of 234 nm, applying an extinction coefficient 25000 M^-1 cm^-1 for both the substrates. […] at 0th min for each reaction is considered as blank and subtracted from […] for given time (t). Similar activity assays were also performed with protein expressed from empty vector for the confirmation of Mi9LOX activity. Optimum pH was determined by calculating activity at varied range of pH in phosphate citrate buffer at 30° C., whereas temperature optima was determined by calculating recombinant 9-lipoxygenase activity in phosphate citrate buffer pH 7 at various temperatures. The purified recombinant 9-lipoxygenase having amino acid sequence as set forth in SEQ ID NO: 2 used linoleic acid (LA) and alpha linolenic acid (ALA) as substrates. Activity of the recombinant 9-lipoxygenase protein was measured spectrophotometrically at 234 nm by the formation of conjugated dienes. For unit calculations, molar extinction coefficient for hydroperoxy linoleate and linolenate was considered 25000 cm^-1M^-1. […]

[3] = test system: recombinant 9-lipoxygenase (Mi9LOX); experiment: pH and temperature activity profile of recombinant Mi9LOX; format: biochemical, Mangifera indica; conditions: for Optimum temperature: phosphate citrate buffer pH 7
Method: The recombinant 9-lipoxygenase (Mi9LOX) activity assays was initially carried out in 250 μl final volume of 100 mM phosphate citrate buffer pH 7.0 at 30° C. containing 200 μM substrate (LA/ALA) and 0.005% Tween20. The activity was measured by formation of the conjugated diene at absorbance of 234 nm, applying an extinction coefficient 25000 M^-1 cm^-1 for both the substrates. […] at 0th min for each reaction is considered as blank and subtracted from […] for given time (t). Similar activity assays were also performed with protein expressed from empty vector for the confirmation of Mi9LOX activity. Optimum pH was determined by calculating activity at varied range of pH in phosphate citrate buffer at 30° C., whereas temperature optima was determined by calculating recombinant 9-lipoxygenase activity in phosphate citrate buffer pH 7 at various temperatures. The purified recombinant 9-lipoxygenase having amino acid sequence as set forth in SEQ ID NO: 2 used linoleic acid (LA) and alpha linolenic acid (ALA) as substrates. Activity of the recombinant 9-lipoxygenase protein was measured spectrophotometrically at 234 nm by the formation of conjugated dienes. For unit calculations, molar extinction coefficient for hydroperoxy linoleate and linolenate was considered 25000 cm^-1M^-1. 9HpODE and 9HpOTrE products formed by the activity of Mi9LOX on LA and ALA respectively were confirmed by UPLC-HRMS. […] (FIG. 10(a)).

[4] = HRMS intermediate metabolite analysis

Row | Km [2] [µM] | Vmax [2] | reduction in the activity ([3]; at 35° C.) [%] | reduced activity ([3]; at 50° C.) [%] | reduction in the activity ([3]; at pH 5 and 9) [%] | Molecule | δ-decalactone content compared to control tissue [1] [fold] | δ-valerolactone content compared to control tissue [1] [fold] | 9HpODE in control and test tissues [1, 4] | increase in 9HpOTrE upon Mi9LOX over expression [1, 4] [folds] | increase of Mi9LOX transcripts in test tissues as compared to the control tissues ([1]; upon Agrobacterium infiltration) | Optimum pH ([3]; phosphate citrate buffer at 30° C.) | Optimum temperature [3] [°C] | Optimum temperature ([3]; listed as recombinant 9-lipoxygenase) [°C]
1 | – | – | – | – | – | SEQ ID NO: 1: 2526 bp cDNA polynucleotide encoding 9-lipoxygenase, cloned in pBI121 and agroinfiltrated for transient over expression | 1.48 | 1.08 | – | – | – | – | – | –
2 | 354 | LA- 611.11 ± 55.55 μM min^−1mg^−1 | – | – | – | CCCCC/C=C\C/C=C\CCCCCCCC(=O)O [LA, linoleic acid] | – | – | – | – | – | – | – | –
3 | – | – | 75 | 69 | 40 | Mi9LOX: Recombinant Mangifera indica 9-lipoxygenase from Alphonso mango, 841 aa, SEQ ID NO: 2 (protein, Protein sequence of 7- Dehydrocholestrol reductase (7-DHCR)) MGTVVLMKKNFLDFNDLSASVIDRVDELVGKRVSLQLVSAFNSDPTASNGLQGKVGEPAHLEEWITTITPLVAEESTFKVTFDWDEQIGVPGAFIIKNNHHSGFYLKSLTLEDVPNQGRIHFVCNSWVYPAKRYKKDRVFFTNKTYLPGEMPAPLQYYREQELLNLRGDGTGELQEWDRVYDYAYYNDLGDPDNGKPRPVLGGSTEYPYPRRGRTGRPPAKTDPETESRLPLLTSLNIYVPRDERFGHIKMSDFLGYALKSISQFIEPALESVFDSTPNEFDNFAQIYKLYDEGIQLPNDHFLDDIRNNIPLELLKEIFPTNEDNLFEFPTPQVIQGDRSAWRTDEEFAREMLAGPNPVIIRRVEEFPPRSKLDPELYGDQDSKITKQHIESYLDGLTVEQAIEKNELFILDHHDSLMTYLRRINTTSTKTYASRTILFLKEDGTLKPLAIELSRPHPDGDQYGAISNVYTPSEDEVEGSIWQLAKAYVAVNDSGVHQLISHWLKTHAAIEPFVIATNRQLSVLHPIYKLLQPHFRDTMNINAFARQIVINAGGILETTVFPAKYAMEMSSAIYKDWTFPDQALPEDLKNRGMAVEDPNSPHGLRLLIADYPYAVDGLEIWFAIKNWVKDYCYFYYKSDEMMQKDSGLQSWWKELREEGHGDKKDEPWWPKMQNREELIEACTIIIWIASALHAAVNFGQYPYAGFLPNRPTMSRRFMPEKGTPDYDELESNFDKVFLKTITAQRQTLLGIALIETLSRHSSDEMYLGQRDTPEWTSDKIPLQAFEDFGKKLGDIEVRIITRNHDNMLKNRVGPVNMPYTLLYPTSEGGLTGKGIPNSVSI | 1.48 | 1.08 | not detected | 1.9 | 1.73 | 6.5 | 37 | 35
